From article PMC3975500 (Cell Research, 2014)

T1: Lsm7 (full length), subunit of the crystallized Lsm1-7 complex (S. cerevisiae, UniProt P53905 1-115)
T1 sequence: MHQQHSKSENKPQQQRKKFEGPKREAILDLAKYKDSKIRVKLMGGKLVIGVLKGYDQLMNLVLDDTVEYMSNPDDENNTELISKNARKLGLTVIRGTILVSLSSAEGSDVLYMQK

T2: Lsm1-7 heptamer (Saccharomyces cerevisiae, UniProt P47017;P38203;P57743;P40070;P40089;Q06406;P53905 …)
T2 sequence 1: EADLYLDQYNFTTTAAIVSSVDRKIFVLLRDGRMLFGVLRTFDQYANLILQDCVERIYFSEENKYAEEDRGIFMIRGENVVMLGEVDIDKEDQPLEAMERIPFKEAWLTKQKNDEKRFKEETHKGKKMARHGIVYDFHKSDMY
T2 sequence 2: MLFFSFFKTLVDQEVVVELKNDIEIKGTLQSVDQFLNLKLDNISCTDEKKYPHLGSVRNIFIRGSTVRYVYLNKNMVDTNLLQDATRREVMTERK
T2 sequence 3: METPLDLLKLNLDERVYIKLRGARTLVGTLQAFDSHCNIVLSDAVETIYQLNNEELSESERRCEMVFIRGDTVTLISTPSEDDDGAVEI
T2 sequence 4: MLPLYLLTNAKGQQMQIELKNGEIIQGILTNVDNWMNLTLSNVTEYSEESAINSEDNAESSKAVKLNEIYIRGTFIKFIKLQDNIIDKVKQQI
T2 sequence 5: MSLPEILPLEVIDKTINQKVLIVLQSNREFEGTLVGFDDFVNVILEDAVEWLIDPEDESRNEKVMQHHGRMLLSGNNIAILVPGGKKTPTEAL
T2 sequence 6: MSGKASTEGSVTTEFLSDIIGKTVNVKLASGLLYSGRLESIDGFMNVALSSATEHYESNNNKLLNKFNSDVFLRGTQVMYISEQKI
T2 sequence 7: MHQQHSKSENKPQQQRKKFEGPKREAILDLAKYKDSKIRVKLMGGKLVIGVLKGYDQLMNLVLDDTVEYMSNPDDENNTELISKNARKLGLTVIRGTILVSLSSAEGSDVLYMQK

B1: Lsm5 (full length), subunit of the crystallized Lsm1-7 complex (natural protein)
chain: MSLPEILPLEVIDKTINQKVLIVLQSNREFEGTLVGFDDFVNVILEDAVEWLIDPEDESRNEKVMQHHGRMLLSGNNIAILVPGGKKTPTEAL

Legend:
[1] = target: T1, Lsm7 (full length), subunit of the …; experiment: crystal structure
Lsm1-7 heptamer = target: T2, Lsm1-7 heptamer; experiment: BLI
[2] = target: B1; experiment: crystal structure

Row | binding result [1] | Binder | other results
1 | binds | Lsm4 (residues 1-93), subunit of the crystallized Lsm1-7 complex (domain or fragment) MLPLYLLTNAKGQQMQIELKNGEIIQGILTNVDNWMNLTLSNVTEYSEESAINSEDNAESSKAVKLNEIYIRGTFIKFIKLQDNIIDKVKQQI | 
2 |  | UUUUUUUU (ssRNA) [oligo-U (U8)] | Kd (Lsm1-7 heptamer): ~2000 nM
3 | binds | B1 | 
4 |  | Lsm6 (full length), subunit of the crystallized Lsm1-7 complex (natural protein) MSGKASTEGSVTTEFLSDIIGKTVNVKLASGLLYSGRLESIDGFMNVALSSATEHYESNNNKLLNKFNSDVFLRGTQVMYISEQKI | binding result [2]: binds
